Assay results published in US20090162360A1.

Target: recombinant human IGF-1R on I24 cells (human) (UniProt P08069)
Experiment: cellular FACS IGF-1R-ANGPT2 bridging assay: I24 cells + hIgG isotype, then 2 µg/mL hANGPT2, <ANGPT2>mIgG1-Biotin and Streptavidin-PE; negative control; untreated I24 cells (panel A): Mean 5.01

Mean (FL2-H fluorescence): 8.76
Substance: hIgG Isotype (antibody)
